{"source": "paper PMC7644948", "about": "(iScience, 2020)", "proteins": {"B1": {"name": "PKM2 mutant with triple mutations (R399E, K422A, and N523A) (enzyme)", "chain": "not shown"}}, "biological_target": "the molecule itself", "assay": "SEC"}
{"protein": "B1", "values": [{"measurement": "stoichiometry N", "value": 2}]}
